Laboratory results published in patent US20230053258.

Target: recombinant human insulin (UniProt P01308)
Sequence (P01308 whole entry, looked up): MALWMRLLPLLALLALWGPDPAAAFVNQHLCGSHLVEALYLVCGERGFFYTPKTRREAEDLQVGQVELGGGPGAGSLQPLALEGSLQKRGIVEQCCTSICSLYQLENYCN

| Substance | insulin degradation (residual insulin by ELISA) |
| --- | --- |
| recombinant human IDE, inactive mutant E111Q | the mutated IDE degraded only 15% of the insulin under the same conditions |
| recombinant human wild type insulin degrading enzyme (WT rhIDE) | ~60% degradation following 2 hours at 37 °C |
